From PMC4729467, “Kinetic Characterization of 100 Glycoside Hydrolase Mutants Enables the Discovery of Structural Features Correlated with Kinetic Constants” (PLoS ONE, 2016)
Residue numbers refer to the chain shown, from its start. Names may count otherwise.

B1: β-glucosidase B (BglB) (Paenibacillus polymyxa) (protein)
chain: MSENTFIFPATFMWGTSTSSYQIEGGTDEGGRTPSIWDTFCQIPGKVIGGDCGDVACDHFHHFKEDVQLMKQLGFLHYRFSVAWPRIMPAAGIINEEGLLFYEHLLDEIELAGLIPMLTLYHWDLPQWIEDEGGWTQRETIQHFKTYASVIMDRFGERINWWNTINEPYCASILGYGTGEHAPGHENWREAFTAAHHILMCHGIASNLHKEKGLTGKIGITLNMEHVDAASERPEDVAAAIRRDGFINRWFAEPLFNGKYPEDMVEWYGTYLNGLDFVQPGDMELIQQPGDFLGINYYTRSIIRSTNDASLLQVEQVHMEEPVTDMGWEIHPESFYKLLTRIEKDFSKGLPILITENGAAMRDELVNGQIEDTGRHGYIEEHLKACHRFIEEGGQLKGYFVWSFLDNFEWAWGYSKRFGIVHINYETQERTPKQSALWFKQMMAKNGF
B2: β-glucosidase B (BglB) (Paenibacillus polymyxa; R243A) (protein)
chain: B1 chain with R243A
B3: β-glucosidase B (BglB) (Paenibacillus polymyxa; E225A) (protein)
chain: B1 chain with E225A

Substrate: O=[N+]([O-])c1ccc(O[C@@H]2O[C@H](CO)[C@@H](O)[C@H](O)[C@H]2O)cc1
Assay: purified protein
[1] = enzyme storage buffer (HEPES elution buffer), ten biological replicates

| Protein | Km [1] [mM] | kcat [1] [s⁻¹] | Km (enzyme storage buffer) [mM] | kcat (enzyme storage buffer) [s⁻¹] | kcat/Km (enzyme storage buffer) [M⁻¹ s⁻¹] |
| --- | --- | --- | --- | --- | --- |
| B1 | 5.0 ± 0.2 | 14.7 ± 0.167 | – | – | – |
| B2 | – | – | 19.46 ± 1.17 | 184 | 9430 ± 606 |
| B3 | – | – | 0.63 ± 0.15 | 1.5 | 2390 ± 602 |
